The chains are these.
B1: ZNF501 (protein, UniProt Q96CX3 1-271, looked up)
Zinc finger protein 501: MNSSQISLRMKHGRVNMQKKPSKCSECGKFFTQRSSLTQHQRIHRGEKPYVCSECGSCFRKQSNLTQHLRIHTGEKPYKCNECEKAFQTKAILVQHLRIHTGEKPYKCNECGKAFCQSPSLIKHQRIHTGEKPYKCTECGKAFSQSICLTRHQRSHSGDKPFKCNECGKAFNQSACLMQHQRIHSGEKPYTCTECGKAFTQNSSLVEHERTHTGEKLYKCSECEKTFRKQAHLSEHYRIHTGEKPYECVGCGKSFRHSSALLRHQRLHAGE
B2: CCNH (protein, UniProt P51946 1-323, looked up)
Cyclin-H: MYHNSSQKRHWTFSSEEQLARLRADANRKFRCKAVANGKVLPNDPVFLEPHEEMTLCKYYEKRLLEFCSVFKPAMPRSVVGTACMYFKRFYLNNSVMEYHPRIIMLTCAFLACKVDEFNVSSPQFVGNLRESPLGQEKALEQILEYELLLIQQLNFHLIVHNPYRPFEGFLIDLKTRYPILENPEILRKTADDFLNRIALTDAYLLYTPSQIALTAILSSASRAGITMESYLSESLMLKENRTCLSQLLDIMKSMRNLVKKYEPPRSEEVAVLKQKLERCHSAELALNVITKKRKGYEDDDYVSKKSKHEEEEWTDDDLVESL
B3: ZNF576 (protein, UniProt Q9H609 1-170, looked up)
Zinc finger protein 576: MEDPNPEENMKQQDSPKERSPQSPGGNICHLGAPKCTRCLITFADSKFQERHMKREHPADFVAQKLQGVLFICFTCARSFPSSKALITHQRSHGPAAKPTLPVATTTAQPTFPCPDCGKTFGQAVSLRRHRQMHEVRAPPGTFACTECGQDFAQEAGLHQHYIRHARGEL
B4: ZNF484 (protein, UniProt Q5JVG2 1-852, looked up)
Zinc finger protein 484: MTKSLESVSFKDVTVDFSRDEWQQLDLAQKSLYREVMLENYFNLISVGCQVPKPEVIFSLEQEEPCMLDGEIPSQSRPDGDIGFGPLQQRMSEEVSFQSEININLFTRDDPYSILEELWKDDEHTRKCGENQNKPLSRVVFINKKTLANDSIFEYKDIGEIVHVNTHLVSSRKRPHNCNSCGKNLEPIITLYNRNNATENSDKTIGDGDIFTHLNSHTEVTACECNQCGKPLHHKQALIQQQKIHTRESLYLFSDYVNVFSPKSHAFAHESICAEEKQHECHECEAVFTQKSQLDGSQRVYAGICTEYEKDFSLKSNRQKTPYEGNYYKCSDYGRAFIQKSDLFRCQRIHSGEKPYEYSECEKNLPQNSNLNIHKKIHTGGKHFECTECGKAFTRKSTLSMHQKIHTGEKPYVCTECGKAFIRKSHFITHERIHTGEKPYECSDCGKSFIKKSQLHVHQRIHTGENPFICSECGKVFTHKTNLIIHQKIHTGERPYICTVCGKAFTDRSNLIKHQKIHTGEKPYKCSDCGKSFTWKSRLRIHQKCHTGERHYECSECGKAFIQKSTLSMHQRIHRGEKPYVCTECGKAFFHKSHFITHERIHTGEKPYECSICGKSFTKKSQLHVHQQIHTGEKPYRCAECGKAFTDRSNLFTHQKIHTGEKPYKCSDCGKAFTRKSGLHIHQQSHTGERHYECSECGKAFARKSTLIMHQRIHTGEKPYICNECGKSFIQKSHLNRHRRIHTGEKPYECSDCGKSFIKKSQLHEHHRIHTGEKPYICAECGKAFTIRSNLIKHQKIHTKQKPYKCSDLGKALNWKPQLSMPQKSDNGEVECSMPQLWCGDSEGDQGQLSSI
B5: ZNF488 (protein, UniProt Q96MN9 1-340, looked up)
Zinc finger protein 488: MPEWPPCLSVAPALVITMAAGKGAPLSPSAENRWRLSEPELGRGCKPVLLEKTNRLGPEAAVGRAGRDVGSAELALLVAPGKPRPGKPLPPKTRGEQRQSAFTELPRMKDRQVDAQAQEREHDDPTGQPGAPQLTQNIPRGPAGSKVFSVWPSGARSEQRSAFSKPTKRPAERPELTSVFPAGESADALGELSGLLNTTDLACWGRLSTPKLLVGDLWNLQALPQNAPLCSTFLGAPTLWLEHTQAQVPPPSSSSTTSWALLPPTLTSLGLSTQNWCAKCNLSFRLTSDLVFHMRSHHKKEHAGPDPHSQKRREEALACPVCQEHFRERHHLSRHMTSHS
B6: ZNF555 (protein, UniProt Q8NEP9 1-628, looked up)
Zinc finger protein 555: MDSVVFEDVAVDFTLEEWALLDSAQRDLYRDVMLETFQNLASVDDETQFKASGSVSQQDIYGEKIPKESKIATFTRNVSWASVLGKIWDSLSIEDQTTNQGRNLSRNHGLERLCESNDQCGEALSQIPHLNLYKKIPPGVKQYEYNTYGKVFMHRRTSLKSPITVHTGHKPYQCQECGQAYSCRSHLRMHVRTHNGERPYVCKLCGKTFPRTSSLNRHVRIHTAEKTYECKQCGKAFIDFSSLTSHLRSHTGEKPYKCKECGKAFSYSSTFRRHTITHTGEKPYKCKECAEAFSYSSTFRRHMISHTGEKPHKCKECGEAFSYSSAFRRHMITHTGEKPYECKQCGKTFIYLQSFRRHERIHTGEKPYECKQCGKTFIYPQSFRRHERTHGGEKPYECNQCGKAFSHPSSFRGHMRVHTGEKPYECKQCGKTFNWPISLRKHMRTHTREKPYECKQCGKAFSLSACFREHVRMHPEDKSYECKLCGKAFYCHISLQKHMRRHTAEKLYKCKQCGKAFSWPELLQQHVRTHTVEKPYECKECGKVFKWPSSLPIHMRLHTGEKPYQCKHCGKAFNCSSSLRRHVRIHTTEKQYKCNVGHPPANEFMCSASEKSHQERDLIKVVNMVLPL
B7: ZNF581 (protein, UniProt Q9P0T4 1-197, looked up)
Zinc finger protein 581: MLVLPSPCPQPLAFSSVETMEGPPRRTCRSPEPGPSSSIGSPQASSPPRPNHYLLIDTQGVPYTVLVDEESQREPGASGAPGQKKCYSCPVCSRVFEYMSYLQRHSITHSEVKPFECDICGKAFKRASHLARHHSIHLAGGGRPHGCPLCPRRFRDAGELAQHSRVHSGERPFQCPHCPRRFMEQNTLQKHTRWKHP
B8: ZNF550 (protein, UniProt Q7Z398 1-422, looked up)
Zinc finger protein 550: MAETKDAAQMLVTFKDVAVTFTREEWRQLDLAQRTLYREVMLETCGLLVSLGHRVPKPELVHLLEHGQELWIVKRGLSHATCAGDRAQVHTREPTTYPPVLSERAFLRGSLTLESSTSSDSRLGRARDEEGLLEMQKGKVTPETDLHKETHLGKVSLEGEGLGTDDGLHSRALQEWLSADVLHECDSQQPGKDALIHAGTNPYKCKQCGKGFNRKWYLVRHQRVHTGMKPYECNACGKAFSQSSTLIRHYLIHTGEKPYKCLECGKAFKRRSYLMQHHPIHTGEKPYECSQCRKAFTHRSTFIRHNRTHTGEKPFECKECEKAFSNRAHLIQHYIIHTGEKPYDCMACGKAFRCSSELIQHQRIHTGEKPYECTQCGKAFHRSTYLIQHSVIHTGEMPYKCIECGKAFKRRSHLLQHQRVHT
B9: ZNF586 (protein, UniProt Q9NXT0 1-402, looked up)
Zinc finger protein 586: MAAAAALRAPAQSSVTFEDVAVNFSLEEWSLLNEAQRCLYRDVMLETLTLISSLGCWHGGEDEAAPSKQSTCIHIYKDQGGHSGERPYECGEYRKLFKNKSCLTEPRRDHKHRNVRTGERPYECSKYGKLFHQKPTLHIHERFHTGQKTYECSECGKSFHQSSSLLQRQTLHTRERPYECIECGKAFAEKSSLINHRKVHSGAKRYECNECGKSFAYTSSLIKHRRIHTGERPYECSECGRSFAENSSLIKHLRVHTGERPYECVECGKSFRRSSSLLQHQRVHTRERPYECSECGKSFSLRSNLIHHQRVHTGERHECGQCGKSFSRKSSLIIHLRVHTGERPYECSDCGKSFAENSSLIKHLRVHTGERPYECIDCGKSFRHSSSFRRHQRVHTGMRPYK
B10: ZNF567 (protein, UniProt Q8N184 1-647, looked up)
Zinc finger protein 567: MAQGSVSFNDVTVDFTQEEWQHLDHAQKTLYMDVMLENYCHLISVGCHMTKPDVILKLERGEEPWTSFAGHTCLEENWKAEDFLVKFKEHQEKYSRSVVSINHKKLVKEKSKIYEKTFTLGKNPVNSKNLPPEYDTHGRILKNVSELIISNLNPARKRLSEYNGYGKSLLSTKQETTHPEVKSHNQSARAFSHNEVLMQYQKTETPAQSFGYNDCEKSFLQRGGLITHSRPYKGENPSVYNKKRRATNIEKKHTCNECGKSFCRKSVLILHQGIHSEEKPYQCHQCGNAFRRKSYLIDHQRTHTGEKPFVCNECGKSFRLKTALTDHQRTHTGEKSYECLQCRNAFRLKSHLIRHQRTHTGEKPYECNDCGKSFRQKTTLSLHQRIHTGEKPYICKECGKSFHQKANLTVHQRTHTGEKPYICNECGKSFSQKTTLALHEKTHNEEKPYICSECGKSFRQKTTLVAHQRTHTGEKSYECPHCGKAFRMKSYLIDHHRTHTGEKPYECNECGKSFSQKTNLNLHQRIHTGEKPYVCNECGKSFRQKATLTVHQKIHTGQKSYECPQCGKAFSRKSYLIHHQRTHTGEKPYKCSECGKCFRQKTNLIVHQRTHTGEKPYVCNECGKSFSYKRNLIVHQRTHKGENIEMQ
B11: ZNF563 (protein, UniProt Q8TA94 1-476, looked up)
Zinc finger protein 563: MDAVAFEDVAVNFTQEEWALLGPSQKNLYRYVMQETIRNLDCIRMIWEEQNTEDQYKNPRRNLRCHMVERFSESKDSSQCGETFSLIRDSIVNNSICPGEDPCQSAECEEVIMGHLSLNSHIRVDSGHKPHEYQEYGEKPHTHKQRGKAFSYHHSFQSRGRPHTGKKRYECKECGKTFSSRRNLRRHMVVQGGNRPYKCKLCGKAFFWPSLLRMHERTHTGEKPYECKQCSKAFPFYSSYRRHERMHTGEKPYECKQCSKALPDSSSYIRHERTHTGEKPYTCKQCGKAFSVSSSLRRHETTHSAEKPYECKQCGKTFHHLGSFQIHMKRHTGDRPHKCKICGKGFDRPSLVRYHERIHTGEKPYECKQCGKTLSHSSSFRRHMIMHTGGGPHKCKICGKAFVYPSVCQRHEKSHSGEKPYECKQCGKALSHSSSFRRHMVMHTGDGPNKCKVCGKAFVYPSVCQRHEKTHWRETI
B12: ZNF512 (protein, UniProt Q96ME7 1-567, looked up)
Zinc finger protein 512: MSSRLGAVPATSGPTTFKQQRSTRIVGAKNSRTQCSIKDNSFQYTIPHDDSLSGSSSASSCEPVSDFPASFRKSTYWMKMRRIKPAATSHVEGSGGVSAKGKRKPRQEEDEDYREFPQKKHKLYGRKQRPKTQPNPKSQARRIRKEPPVYAAGSLEEQWYLEIVDKGSVSCPTCQAVGRKTIEGLKKHMENCKQEMFTCHHCGKQLRSLAGMKYHVMANHNSLPILKAGDEIDEPSERERLRTVLKRLGKLRCMRESCSSSFTSIMGYLYHVRKCGKGAAELEKMTLKCHHCGKPYRSKAGLAYHLRSEHGPISFFPESGQPECLKEMNLESKSGGRVQRRSAKIAVYHLQELASAELAKEWPKRKVLQDLVPDDRKLKYTRPGLPTFSQEVLHKWKTDIKKYHRIQCPNQGCEAVYSSVSGLKAHLGSCTLGNFVAGKYKCLLCQKEFVSESGVKYHINSVHAEDWFVVNPTTTKSFEKLMKIKQRQQEEEKRRQQHRSRRSLRRRQQPGIELPETELSLRVGKDQRRNNEELVVSASCKEPEQEPVPAQFQKVKPPKTNHKRGRK

The values below come from paper PMC11574045, “A cofactor-induced repressive type of transcription factor condensation can be induced by synthetic peptides to suppress tumorigenesis” (The EMBO Journal, 2024).

The test system of the assay is HEK293FT cells transfected with TF library. The experiment in a line: Screening of TF condensates based on fluorescent puncta. The assay is classed as cell-based. Particulars: Figure 1B numerical data; TF library screen, one value per transcriptional factor. Put shortly: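 Puncta scoring used automated confocal imaging of fifty random fields per well, after anti-Flag or anti-GAL4 immunofluorescence (Alexa 488) in PFA-fixed cells. HEK293FT cells carried TF library plasmids delivered with PEI (1.6 μg/ml DNA). At 60 h they were switched for 12 h to glucose-containing or glucose-free medium.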
On to B1, for which the “Z score of condensed fraction” value is on record as -1.032.

B2: the “Z score of condensed fraction” value is -0.9342.

Consider B3, for which the “Z score of condensed fraction” value was -0.3795.

Take B4: the “Z score of condensed fraction” value was -0.5495.

For the molecule B5, the “Z score of condensed fraction” value is recorded as -0.1473.

For B6, the “Z score of condensed fraction” value was -0.894.

In the case of B7, the “Z score of condensed fraction” value is on record as -0.1395.

With B8, the “Z score of condensed fraction” value is on record as -0.5599.

For the molecule B9, the “Z score of condensed fraction” value came out at 0.1456.

For the molecule B10, the “Z score of condensed fraction” value is listed as -0.7114.

With B11, the “Z score of condensed fraction” value is given as -0.4635.

For B12, the “Z score of condensed fraction” value is -0.5967.
